From patent EP4682166A1 (Guangzhou Enmai Biotechnology Co., Ltd, dated 2026)

T1: human NMI (N-myc Interacting protein), recombinant protein (human, UniProt Q13287 1-307, limits assumed)
T1 construct: Gene ID: 9111; also called hNMI; antigen
T1 sequence (looked up): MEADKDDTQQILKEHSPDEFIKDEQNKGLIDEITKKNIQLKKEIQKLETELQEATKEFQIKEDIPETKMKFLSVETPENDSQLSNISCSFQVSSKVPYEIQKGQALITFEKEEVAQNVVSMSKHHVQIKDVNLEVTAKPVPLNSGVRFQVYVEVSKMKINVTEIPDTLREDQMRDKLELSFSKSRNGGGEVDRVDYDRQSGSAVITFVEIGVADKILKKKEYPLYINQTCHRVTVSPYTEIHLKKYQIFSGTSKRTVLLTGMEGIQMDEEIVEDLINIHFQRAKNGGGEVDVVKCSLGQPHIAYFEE


How the values were obtained:
[1] = biological target: T1, human NMI (N-myc Interacting protein), …; test: ELISA EC50 against parent B-8
[2] = biological target: T1, human NMI (N-myc Interacting protein), …; test: indirect ELISA, coated hNMI
[3] = biological target: T1, human NMI (N-myc Interacting protein), …; test: sandwich ELISA; detection 94C4-1-biotin 0.5µg/mL; hNMI 781.250 pg/mL
[4] = biological target: T1, human NMI (N-myc Interacting protein), …; test: sandwich ELISA; detection 94C4-1-biotin 0.5µg/mL; hNMI 3,125.000 pg/mL
[5] = biological target: T1, human NMI (N-myc Interacting protein), …; test: sandwich ELISA; detection 94C4-1-biotin 1µg/mL; hNMI 12,500.000 pg/mL
[6] = biological target: T1, human NMI (N-myc Interacting protein), …; test: sandwich ELISA; detection 94C4-1-biotin 1µg/mL; hNMI 390.625 pg/mL
[7] = biological target: T1, human NMI (N-myc Interacting protein), …; test: ELISA, binding to hNMI
[8] = biological target: T1, human NMI (N-myc Interacting protein), …; test: ELISA, binding to hNMI; remark: listed apart in the source
[9] = biological target: T1, human NMI (N-myc Interacting protein), …; test: sandwich ELISA; detection 94C4-1-biotin 1µg/mL; hNMI 3,125.000 pg/mL
[10] = biological target: T1, human NMI (N-myc Interacting protein), …; test: sandwich ELISA; detection 94C4-1-biotin 1µg/mL; hNMI 6,250.000 pg/mL
[11] = biological target: T1, human NMI (N-myc Interacting protein), …; test: sandwich ELISA; detection 94C4-1-biotin 0.5µg/mL; hNMI 12,500.000 pg/mL
[12] = biological target: T1, human NMI (N-myc Interacting protein), …; test: sandwich ELISA; detection 94C4-1-biotin 0.5µg/mL; hNMI 48.828 pg/mL
[13] = biological target: T1, human NMI (N-myc Interacting protein), …; test: sandwich ELISA; detection 94C4-1-biotin 1µg/mL; hNMI 195.313 pg/mL
[14] = biological target: T1, human NMI (N-myc Interacting protein), …; test: sandwich ELISA; detection 94C4-1-biotin 0.5µg/mL; hNMI 390.625 pg/mL
[15] = biological target: T1, human NMI (N-myc Interacting protein), …; test: sandwich ELISA; detection 94C4-1-biotin 1µg/mL; hNMI 50,000.000 pg/mL
[16] = biological target: T1, human NMI (N-myc Interacting protein), …; test: sandwich ELISA; detection 94C4-1-biotin 1µg/mL; hNMI 1,562.500 pg/mL
[17] = biological target: T1, human NMI (N-myc Interacting protein), …; test: sandwich ELISA; detection 94C4-1-biotin 0.5µg/mL; hNMI 1,562.500 pg/mL
[18] = biological target: T1, human NMI (N-myc Interacting protein), …; test: sandwich ELISA; detection 94C4-1-biotin 1µg/mL; hNMI 48.828 pg/mL
[19] = biological target: T1, human NMI (N-myc Interacting protein), …; test: sandwich ELISA; detection 94C4-1-biotin 0.5µg/mL; hNMI 50,000.000 pg/mL
[20] = biological target: T1, human NMI (N-myc Interacting protein), …; test: sandwich ELISA; detection 94C4-1-biotin 0.5µg/mL; hNMI 25,000.000 pg/mL
[21] = biological target: T1, human NMI (N-myc Interacting protein), …; test: sandwich ELISA; detection 94C4-1-biotin 0.5µg/mL; hNMI 6,250.000 pg/mL
[22] = biological target: T1, human NMI (N-myc Interacting protein), …; test: sandwich ELISA; detection 94C4-1-biotin 0.5µg/mL; hNMI 97.656 pg/mL
[23] = biological target: T1, human NMI (N-myc Interacting protein), …; test: sandwich ELISA; detection 94C4-1-biotin 0.5µg/mL; hNMI 195.313 pg/mL
[24] = biological target: T1, human NMI (N-myc Interacting protein), …; test: sandwich ELISA; detection 94C4-1-biotin 1µg/mL; hNMI 781.250 pg/mL
[25] = biological target: T1, human NMI (N-myc Interacting protein), …; test: sandwich ELISA; detection 94C4-1-biotin 1µg/mL; hNMI 97.656 pg/mL
[26] = biological target: T1, human NMI (N-myc Interacting protein), …; test: sandwich ELISA; detection 94C4-1-biotin 1µg/mL; hNMI 25,000.000 pg/mL

Row | Binder | Fold decrease in affinity [1] [fold] | EC50 [2] [µg/mL] | OD450 [3] [OD450] | OD450 [4] [OD450] | OD450 [5] [OD450] | OD450 [6] [OD450] | OD450 [9] [OD450] | OD450 [10] [OD450] | OD450 [11] [OD450] | OD450 [12] [OD450] | OD450 [13] [OD450] | OD450 [14] [OD450] | OD450 [15] [OD450] | OD450 [16] [OD450] | OD450 [17] [OD450] | OD450 [18] [OD450] | OD450 [19] [OD450] | OD450 [20] [OD450] | OD450 [21] [OD450] | OD450 [22] [OD450] | also measured
1 | B-8 mutant S101Y (VH) (antibody, V domains shown) VH: QSLEESGGDLVKPGASLTLTCTASGFSFSSSYYMCWVRQAPGKGLEWIACIYAGSSGSTYYASWAKGRFTISKTSSTTVTLQMTSLTAADTATYFCAREYYYDDYGDFWGFNLWGPGTLVTVSS VL: ALVMTQTPSSVSAAVGGTVTINCQASQNIYTNLAWYQQKPGQPPKLLIYGASNLESGVPSRFKGSGSGTEYTLTISDLECDDAATYYCQSSLYSRIADRANAFGGGTEVVVK | > 500 |  |  |  |  |  |  |  |  |  |  |  |  |  |  |  |  |  |  |  | 
2 | B-8 mutant T31V (VL) (antibody, V domains shown) VH: QSLEESGGDLVKPGASLTLTCTASGFSFSSSYYMCWVRQAPGKGLEWIACIYAGSSGSTYYASWAKGRFTISKTSSTTVTLQMTSLTAADTATYFCAREYSYDDYGDFWGFNLWGPGTLVTVSS VL: ALVMTQTPSSVSAAVGGTVTINCQASQNIYVNLAWYQQKPGQPPKLLIYGASNLESGVPSRFKGSGSGTEYTLTISDLECDDAATYYCQSSLYSRIADRANAFGGGTEVVVK | > 100 |  |  |  |  |  |  |  |  |  |  |  |  |  |  |  |  |  |  |  | 

Further lines, with some results ahead:

Row | Fold decrease in affinity [1] [fold] | EC50 [2] [µg/mL] | OD450 [3] [OD450] | OD450 [4] [OD450] | OD450 [5] [OD450] | OD450 [6] [OD450] | OD450 [9] [OD450] | OD450 [10] [OD450] | OD450 [11] [OD450] | OD450 [12] [OD450] | OD450 [13] [OD450] | OD450 [14] [OD450] | OD450 [15] [OD450] | OD450 [16] [OD450] | OD450 [17] [OD450] | OD450 [18] [OD450] | OD450 [19] [OD450] | OD450 [20] [OD450] | OD450 [21] [OD450] | OD450 [22] [OD450] | Binder | also measured
3 |  | 0.071 | 0.377 | 0.958 | 2.31 | 0.233 | 0.903 | 1.53 | 2.44 | 0.108 | 0.179 | 0.219 | 3.04 | 0.525 | 0.596 | 0.134 | 3.25 | 2.87 | 1.6 | 0.126 | monoclonal antibody 98G10 (antibody, V domains shown, Rabbit monoclonal antibody) VH: QEQLEESGGDLVKPEGSLTLTCTASGFSFSASYWICWVRQAPGKGLEWIACIYGGSSGSAYYASWAKGRFTISKTSSTTVTLQMTSLTAADTATYFCARAGYYNYGSAGDIYPSSFKLWGPGTLVTVSS VL: DIVMTQTPASVEAAVGGTVTINCQASQSISTALAWYQQKPGQPPKLLIYTASKVASGVPSRFSGSGSGTQFTLTISDLECADAATYYCQNYYYSSSSITFGGGTEVVVK | EC50 [7]: 0.031 µg/mL; EC50 [8]: 0.165 nM; OD450 [23]: 0.159 OD450; OD450 [24]: 0.341 OD450; OD450 [25]: 0.149 OD450; OD450 [26]: 2.74 OD450
4 |  | 0.0535 | 0.387 | 0.96 | 2.15 | 0.251 | 0.932 | 1.52 | 2.3 | 0.13 | 0.207 | 0.25 | 3.1 | 0.547 | 0.593 | 0.145 | 3.16 | 2.75 | 1.56 | 0.143 | monoclonal antibody 39B4 (antibody, V domains shown, Rabbit monoclonal antibody; also called 39B4-1) VH: QEQLVESGGGLVQPEGSLTLTCTASGFSFSSSYWICWVRQAPGKGLEWIACIYAGTSGSTYYASWAKGRFTISKTSSTTVDLQMNSLTAADTATYFCARAGYYTYGAGVYIYPSSFKLWGPGTLVTVSS VL: DVVMTQTPASVEAAVGGTVTIKCQASESIGNALAWYQQKPGQPPKLLIYSASNLASGVPSRFSGSGSGTQFTLTISDLECADAATYYCQSYYYSSSSITFGGGTEVVVK | OD450 [23]: 0.179 OD450; OD450 [24]: 0.381 OD450; OD450 [25]: 0.169 OD450; OD450 [26]: 2.75 OD450
